Tested on: K4 kissing-loop RNA reporter
Assay: apparent KD of K4 kissing-loop reporter; higher = weaker reporter binding
Conditions: Eterna round: R107
Protocol: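 RNA-MaP round R107: designed RNA switches with theophylline, tryptophan, arginine or FMN aptamers are transcribed on-chip within common flanks. They are titrated with a labelled K4 kissing-loop RNA reporter in RNA-MaP buffer (100 mM Tris pH 7.5, 80 mM KCl, 4 mM MgCl2), without ligand or with the indicated ligand. Median apparent KD per design.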

[1] = input ligand: theophylline 20 uM
[2] = input ligand: tryptophan 2.4 mM
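Also: bound reporter read as fluorescence of individual clusters on recovered sequencing chips by microscopy, with normalized cluster intensities fitted with a binding model.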

| Sequence | apparent KD of K4 kissing-loop reporter (input ligand: FMN 200 uM) | apparent KD of K4 kissing-loop reporter (input ligand: arginine 13.2 mM) | apparent KD of K4 kissing-loop reporter (input ligand: none) | apparent KD of K4 kissing-loop reporter [1] | apparent KD of K4 kissing-loop reporter [2] |
| --- | --- | --- | --- | --- | --- |
| UCGCACCUGUGGGCGAGGCCUAUAAUUGUCAAGGAUAUAGAUCAUUCUAGAAGGUGACACUUCGCGAGUGAUGUUCGGGAAAUGC [theeternabot_sameState_KL_FMN_A_8] | 0.386 µM | 0.212 µM | 0.273 µM | 0.245 µM | 0.179 µM |
| UCGCUCGAGUAAGGAUAUCAAUAUCAAAGGUCGUAGUGAUGUUAUACCAGGCCAAUUUGGCGGUAGUGAGAAGGUACUAGCAGUU [theeternabot_sameState_KL_FMN_B_38] | 1.09 µM | 0.294 µM | 0.688 µM | 0.461 µM | 0.405 µM |
| UCUCGGGCCAGUGAUGUUGGCGGCAAGUGGCGAGGACCGGUACGGCCGCCACUCGGCGCAGCAGCGGAGUGAUGUUUCGUGAGUA [Same State Tryptophan A GF 16] | 0.297 µM | 1.24 µM | 1.23 µM | 0.387 µM | 0.675 µM |
| UCUGCUGUAUAUGAUACCAGCAGUGAGAGACCAGAAGUAUAGUGAUGUUAUAUGAGAGAAUGCCCUUGGCAGCGUGUGCGGGUGG [SSTheophylB.Z] | 0.0854 µM | 0.0876 µM | 0.0675 µM | 0.0847 µM | 0.0616 µM |
| UGACAUUGCUCAGAUACCAGACCUGAGGAUCACCCUGGUGCCAAACGUACAAUAAUAAAUGUCCCUUGGCAGCUGAGCAAUGUCU [TheoBX 14] | 0.0778 µM | 0.0276 µM | 0.0449 µM | 0.139 µM | 0.0524 µM |
| UGACAUUGCUCAGAUACCAGUCAUGAGGAUCACCCAUGGGCCAAACGUACAAUAAUAAAUGACCCUUGGCAGCUGAGCAAUGUCU [TheoBX 14] | 0.0645 µM | 0.0369 µM | 0.0554 µM | 0.135 µM | 0.0628 µM |
| UGACUACAAAAGGAAUAAUCCUAGUGAUGUUAGGAUAUGCUGAUAAGCAGAAGGAACGGAGAUCGAAAGAUCUCAUAUGUAGUCU [whbob_Ex_FMNA__2th192] | 0.141 µM | 0.0874 µM | 0.0828 µM | 0.0985 µM | 0.0874 µM |
| UGACUACAGGAAUAAUAAUCCUAGUGAUGUUAGGAUAUGCUGAUAAGCAGAAGGAACUGAGAUCGAAAGAUCUCAAAAGUAGUCU [FmnAX 28 Mat Inspired #SwitchBubble #StaticStem #K4Early] | 0.139 µM | 0.0893 µM | 0.0929 µM | 0.106 µM | 0.0967 µM |
| UGACUGGACUGAAGGAGCGCUAAAACUCCUAGUGAUGUUGGGAAAUAGAGACAAAGUCUCAAGCAGGUAGGUCGCAGUCUAGUCU [ArgBS 23 #SwitchBubble #StaticStem] | 0.166 µM | 0.2 µM | 0.163 µM | 0.197 µM | 0.169 µM |
| UGACUGGACUGAAGGAGCGGGCGAGACAAAGUCUCGAACUCCUAGUGAUGUUAGGAAAUAACCCAGGUAGGUCGCAGUCUAGUCU [ArgBS 7 #SwitchBubble #StaticStem #DoubleMagnet] | 0.149 µM | 0.104 µM | 0.128 µM | 0.136 µM | 0.137 µM |
| UGACUGGAUGGAAGGAGCGCUAAACUCCUAGUGAUGUUAGGGAUAUGAGGCAAAGCCUUGAGGCAGGUAGGUCGCCAUCUAGUCU [FiskerMod 25 - Jieux - Same State - Arginine B] | 0.191 µM | 0.117 µM | 0.131 µM | 0.141 µM | 0.145 µM |
| UGACUUGCCUGAGGAUAUCUAGGAUAUCCAUAAAAGGAAAUAAUAGUUCAGUGAUGUUGGAGAAGGAGAGAAGGCAGGUAAGUCU [KL-XFMN-B18 #DoubleAptamer #SwitchBubble] | 0.671 µM | 0.514 µM | 0.493 µM | 0.737 µM | 0.448 µM |
| UGAGGAGAAUAUGAUACCAGCAGAGAGAGAGAGGAAGUAUAGUGAUGUUAUAUGAGAUAAUGCCCUUGGCAGCAUAAGAAGAAGG [#19 K4 Theophylline B Same State] | 0.163 µM | 0.104 µM | 0.111 µM | 0.178 µM | 0.145 µM |
| UGAUACCAGACGGCCGCCACUCCUGCAGUCAAAGACUGCUAAAAGGAAAUCGUCCAGUGAUGUUGGAGGACCGGGUCUGGUAUCU [TrypBX 14 #SwitchBubble #Palindromic #StaticStem] | 0.647 µM | 0.738 µM | 1.15 µM | 0.685 µM | 0.372 µM |
| UGAUACCAGACGGCCGCCACUCCUGCAGUCAAAGACUGCUAAAGGAAAUUCGUCCAGUGAUGUUGGAGGACCGGGUCUGGUAUCU [TrypBX 13 #SwitchBubble #Palindromic #StaticStem] | 1.1 µM | 0.753 µM | 1.07 µM | 0.81 µM | 0.48 µM |
| UGAUACCAGACUGAUACCAGCAAGUGAUGUUUGUUGAUCUAUGCAGUCAAAGACUGCUCUUGCCCUUGGCAGCAGUCUGGUAUCU [TheoBX 28 #SwitchBubble #StaticStem] | 0.762 µM | 0.64 µM | 1.04 µM | 0.409 µM | 0.777 µM |
| UGAUACCAGACUGAUACCAGCUAGUGAUGUUAGCUGAAACAGGAACAGGCAAAGCCUGCUAGCCCUUGGCAGCAGUCUGGUAUCU [TheoBX 11 #SwitchBubble #StaticStem] | 0.0915 µM | 0.0906 µM | 0.0969 µM | 0.152 µM | 0.0853 µM |
| UGAUAGGACAGAAGGAGCGGAAGUGAUGUUUCCAAAAGGAGAGGUCGACAAAGUCGACCCUUCCAGGUAGGUCGCUGUCCUAUCU [ArgBX 10 #Palindromic #SwitchBubble #StaticStem] | 0.0953 µM | 0.0835 µM | 0.0791 µM | 0.105 µM | 0.0867 µM |
| UGAUUGCCAGUGAUGUUGGCAGGGUCUGAAGGAGCGCGUGAAAACGCAGGUAGGUCGCAGUAUGGUGCCAAUUGAUCGAAAGAUC [KL-XArg-A3] | 0.226 µM | 0.186 µM | 0.223 µM | 0.21 µM | 0.17 µM |
| UGCAUCAGUGCCUUUGAUCUAUUCCUGGAUACCAGAUCCUACUUGAUCCCUUGGCAGCCAUACGGGAGUGAUGUUCCAUGUAUCC [theeternabot_exclusion_KL_Theo_A_43] | 0.21 µM | 0.199 µM | 0.209 µM | 0.285 µM | 0.167 µM |
| UGCGCUGUGUACUGAAAUGUCCUGCGGGAUACCAGAGUCUUUUUAUUCCCUUGGCAGCUUGAGUGAUGUUUGAUGCCGUUCUUGU [frrgmullin] | 0.786 µM | 0.423 µM | 0.71 µM | 0.738 µM | 0.47 µM |
| UGGACCUGACUCGAUAAGAGUCAAUGAGAUACCAGUGACGAAAGUCACCCUUGGCAGCUCAACUGCCAGUGAUGUUGGUGGUCCU [#SwitchBubble 2 #StaticStem] | 0.605 µM | 0.389 µM | 0.769 µM | 0.703 µM | 0.528 µM |
| UGGAGUUGACGAAAAGUCAACUCCCGAGAAGGAGCGGACGAAAGUCCAGGUAGGUCGCUCACUACCAGUGAUGUUGGUACUUAAA | 0.138 µM | 0.22 µM | 0.181 µM | 0.213 µM | 0.138 µM |
| UGGAGUUGACGAAAAGUCAACUCCUGAGAAGGAGCGGACGAAAGUCCAGGUAGGUCGCUCACUACCAGUGAUGUUGGUACUGAAA | 0.187 µM | 0.228 µM | 0.203 µM | 0.229 µM | 0.164 µM |
| UGGAUGUAGUGAUGUUAUAUAGAGAGUGAUACCAGUUUAGAGAAGAACCCUUGGCAGCAUAGAAGAGUAUCAUUGGAGAAGAAUG [ExTheophyl.Ar] | 0.308 µM | 0.347 µM | 0.32 µM | 0.334 µM | 0.244 µM |
| UGGCAAGUGAUGUUUGCGUUUCCGCAGGAUACCAGUCUGUCUUGAGACCCUUGGCAGCCUGGGUACAGUCCAAGCGGUCACACGA [theeternabot_exclusion_KL_Theo_A_38] | 0.371 µM | 0.297 µM | 0.405 µM | 0.375 µM | 0.285 µM |
| UGGCGGCAAGGGUUAUUGGAAAGUAUUCGUCGAGGACCGGUACGGCCGCCACUCGAACACCAGUGAUGUUGGUCUGGUUUAAGCU [Exclusion Tryptophan A GF 22] | 0.447 µM | 0.69 µM | 0.54 µM | 0.636 µM | 0.321 µM |
| UGUAAGCGCGUAGAUACCAGCAGACGAGUGAUGUUCGAGAGAUUAAGGAAAAGAAAGUGAUGCCCUUGGCAGCUAAUCAUAAGCG [whbob_Ex_Theo_B_sa95] | 0.278 µM | 0.3 µM | 0.288 µM | 0.323 µM | 0.182 µM |
| UGUAAGUGUCAGCGAGUGAUGUUCGACGAUACCAGACUCGAUAGAGUCCCUUGGCAGCGUAAUGCAUGCCAAACUGGCACAUACU [#SwitchBubble 11 #K4Early] | 0.453 µM | 0.438 µM | 0.56 µM | 0.528 µM | 0.434 µM |
| UGUACCGAGUCAGGAUAUCAACGACUGACAAAGUCGGUCGAAUAUCCAGUGAUGUUGGAAAAUAAAUGAGAAGGGACUUGGUACU [FmnBS 12 #SwitchBubble #StaticStem] | 0.137 µM | 0.361 µM | 0.36 µM | 0.341 µM | 0.344 µM |
